Data reported in US20230357425A1 (HARBOUR BIOMED SHANGHAI, published 2023).

Molecular target: T1, Cynomolgus monkey CD73 on HEK293-cynoCD73 stable cell line (cynomolgus monkey)
T1 construct: whole, on cells
Assay: flow cytometry on HEK293-cynoCD73 stable cells
Procedure: Binding of antibodies to hCD73 and cynoCD73 expression in stable cell line was characterized by Flow cytometry. The cells were incubated with various concentration antibodies (the top concentration was 50 nM, 8 points, dilution factor 3), then incubate for 1 h at 4° C. Wash two times by PBS, then add the secondary antibody Goat anti-human(H+L) (Thermo fisher, A11013), incubate for 30 min at 4° C. And the fluorescence intensity was read by FACS Machine (BD FACS CantoII). A plot of median fluorescence intensity and the binding EC50 were fitted and calculated by GraphPad Prism 5.

Binder | EC50 [nM]
PR000506 (antibody, human IgG1, kappa, L234A L235A, V domains shown, Recombinant antibody from hybridoma clone 38H6; also called 38H6E5 (clone name)) VH: QVQLVESGGGVAQPGRSLSLSCAASGFTFSDYGMHWVRQAPGKGLEWVALIWYDGSFEYYADSVKGRFSISRDNSKNTLYLQMNSLRAEDTAVYYCVRDGQWGSRLDYWGQGTLVTVSS VL: KIVMTQSPATLSLSPGERATLSCRASQSVSRYLAWYQQKPGQAPRLLIYDASNRATGIPARFSGSGSGTDFTLTISSLEPEDFAVYYCQQRSNWIFTFGPGTKVDIKR | 0.323
PR000844 (antibody, human IgG1, kappa, L234A L235A, V domains shown, PTM-removal variant of PR000506 (heavy chain D54E, G100A)) VH: QVQLVESGGGVAQPGRSLSLSCAASGFTFSDYGMHWVRQAPGKGLEWVALIWYEGSFEYYADSVKGRFSISRDNSKNTLYLQMNSLRAEDTAVYYCVRDAQWGSRLDYWGQGTLVTVSS VL: KIVMTQSPATLSLSPGERATLSCRASQSVSRYLAWYQQKPGQAPRLLIYDASNRATGIPARFSGSGSGTDFTLTISSLEPEDFAVYYCQQRSNWIFTFGPGTKVDIKR | 0.475

Now from value to binder:

EC50 [nM] | Binder
0.515 | PR000849 (antibody, human IgG1, kappa, L234A L235A, V domains shown, PTM-removal variant of PR000851 (heavy chain G55A, D99E)) VH: QVQLVESGGGVAQPGRSLSLSCAASGFTFSDYGMHWVRQAPGKGLEWVALIWYDASFEYYADSVKGRFSISRDNSKNTLYLQMNSLRAEDTAVYYCVREGQWGSRLDYWGQGTLVTVSS VL: EIVLTQSPATLSLSPGERATLSCRASQSVSRYLAWYQQKPGQAPRLLIYDASNRATGIPARFSGSGSGTDFTLTISSLEPEDFAVYYCQQRSNWIFTFGPGTKVDIKR
0.623 | Tab1 (antibody, human IgG1, lambda, V domains shown, also called PR002078; MEDI9447(TAB1)) VH: EVQLLESGGGLVQPGGSLRLSCAASGFTFSSYAYSWVRQAPGKGLEWVSAISGSGGRTYYADSVKGRFTISRDNSKNTLYLQMNSLRAEDTAVYYCARLGYGRVDEWGRGTLVTVSS VL: QSVLTQPPSASGTPGQRVTISCSGSLSNIGRNPVNWYQQLPGTAPKLLIYLDNLRLSGVPDRFSGSKSGTSASLAISGLQSEDEADYYCATWDDSHPGWTFGGGTKLTVLG
